The record followed here is US11994512B2, “Single-cell genomic methods to generate ex vivo cell systems that recapitulate in vivo biology with improved fidelity” (Massachusetts Institute of Technology, priority 2018, dated 2024).

The assay concerns intracellular proteome of ENR+CD and ENR organoids. Description: LC-MS/MS TMT proteomics of ENR+CD versus ENR organoids. The format is cell-based, C57BL/6 mice. The settings on record: for Average logFC: ENR+CD versus ENR organoids, sample pairs in aggregate (n=4, 2 technical replicates from two biological donors); for M1-1 Log2 Median Normalized / M1-2 Log2 Median Normalized / M2-1 Log2 Median Normalized / M2-2 Log2 Median Normalized: protein abundance ratio ENR+CD versus ENR organoids, LC-MS/MS TMT proteomics; for M1-1 Log2 Median Normalized: sample pair M1-1; for M1-2 Log2 Median Normalized: sample pair M1-2; for M2-1 Log2 Median Normalized: sample pair M2-1; for M2-2 Log2 Median Normalized: sample pair M2-2; for change: up = enriched in ENR+CD, down = enriched in ENR, FDR<0.05 and log fold change cut-off.

B1: Q9D009 (protein, UniProt Q9D009 1-231, looked up)
chain: MSLPVVRLVWLGRVHYSELLALQEHWLRRLQADPRPGTLSGTKAGVLLVCEPAGPVYTGGLRGGLTPEETTRLRALGAEVRATGRGGLATFHGPGQLLCHPVLDLRLLGLRLRTHVAALEACAVRLCELRGLQGARARPPPYTGVWLGERKICAIGVRCGRHITSHGLALNCSTDLTWFEHIVPCGLVGTGVTSLSEALQRLVTVDEVMPSFLVAFKETFKCTLISEDSPS
modifications: full-length
As for B1, the “Average logFC” value is on record as −2.176, the “M1-1 Log2 Median Normalized” value is on record as −0.836, the “M1-2 Log2 Median Normalized” value is listed as −2.401 and the “M2-1 Log2 Median Normalized” value is reported as −2.1745. In addition, the “M2-2 Log2 Median Normalized” value is −2.621 and the change entry was “down”.

B2: Q9CXS4 (protein, UniProt Q9CXS4 1-252, looked up)
chain: MRRTRSAVATGPREQRRSGATGGLSGGESRAQRSRSRTRAGAGGGGGAVGPQPSAKPRPKPPPRAQEAAAEEPPPAVTPAASVSALDLGEQRERWETFQKRQRLSFEGAAKLLLDTFEYQGLVKHTGGCHCGAVRFEVWASADLHIFDCNCSICKKKQNRHFIVPASRFKLLKGAESITTYTFNTHKAQHTFCKRCGVQSFYTPRSNPGGFGIAPHCLDEGTVRSVVTEEFNGSDWERAMKEHKTIKNMSKE
modifications: full-length
On to B2, for which the “Average logFC” value is −1.1404, the “M1-1 Log2 Median Normalized” value is given as −1.106, the “M1-2 Log2 Median Normalized” value was −1.141 and the “M2-1 Log2 Median Normalized” value is −0.9445. Besides, the “M2-2 Log2 Median Normalized” value is reported as −1.649 and the change result is given as “down”.

B3: Q9CQU5 (protein, UniProt Q9CQU5 1-252, looked up)
chain: MADAEKNAVAEKNNAVATKEVLAEAAAILEPVGLQEEAELPAKIMEEFMRNSRKKDKLLCSQLQVVNFLQTFLAQEDTEQSPDALASEDASRQKATETKEQWKDMKATYMDHVDVIKCALSEALPQVKEAHRKYTELQKAFEQLEAKKRVLEEKLQLAQKQWVLQQKRLQNLTKISAEVKRRRKRALEKLDGSHQELETLKQQAGQEQEKLQRNQSYLQLLCSLQNKLVISEGKAEDKDVKGRALTAKSKSP
modifications: full-length
For the molecule B3, the “Average logFC” value is −1.13, the “M1-1 Log2 Median Normalized” value is recorded as −1.159, the “M1-2 Log2 Median Normalized” value is recorded as −0.699 and the “M2-1 Log2 Median Normalized” value is listed as −1.1625. The “M2-2 Log2 Median Normalized” value was −1.13 and the change result is listed as “down”.

B4: Q9CVI2 (protein, UniProt Q9CVI2 1-245, looked up)
chain: MGKRDNRVAYMNPIAMARSRGPIQSSGPTIQDYLNRPRPTWEEVKEQLEKKKKGSKALAEFEEKMNENWKKELEKHREKLLSGNESSSKKRQKKKKEKKKSGRYSSSSSSSSDSSSSSSDSEDEDKKQTKRRKKKKSRCHKSPESSGSDSASDSKDGSKKKKKSKDVTEREKDTKGLSKKRKMYEDKPLSSESLSESDCGEVQAKRKKSGEERERTTDKAKKRRKHKKHSKKKKKKAASSSSDSP
modifications: full-length
As to B4, the “Average logFC” value is −1.186, the “M1-1 Log2 Median Normalized” value was −1.385, the “M1-2 Log2 Median Normalized” value is reported as −1.072 and the “M2-1 Log2 Median Normalized” value is on record as −1.0115. Further, the “M2-2 Log2 Median Normalized” value was −1.275 and the change result is on record as “down”.

B5: Q9D1C1 (protein, UniProt Q9D1C1 1-179, looked up)
chain: MASQNRDPAAASVAAVRKGAEPCGGAARGPVGKRLQQELMILMTSGDKGISAFPESDNLFKWVGTIHGAAGTVYEDLRYKLSLEFPSGYPYNAPTVKFLTPCYHPNVDTQGNICLDILKDKWSALYDVRTILLSIQSLLGEPNIDSPLNTHAAELWKNPTAFKKYLQETYSKQVSSQDP
modifications: full-length
As to B5, the “Average logFC” value is reported as −1.255, the “M1-1 Log2 Median Normalized” value is −1.316, the “M1-2 Log2 Median Normalized” value is on record as −0.925 and the “M2-1 Log2 Median Normalized” value is on record as −1.1505. Further, the “M2-2 Log2 Median Normalized” value is −1.63 and the change entry is “down”.

B6: Q9CPY1 (protein, UniProt Q9CPY1 1-128, looked up)
chain: MAGSVPWAASRRLWGWVPSACRSFSLGVPRLAFVRLTLPPPKVVDRWNEKRALFGVYDNIGILGNFEKHPKELIKGPVWLRGWRGNELQRCVRKKKFVGNRMFIEDLHNLNKRISYLYKHFNRHGKYR
modifications: full-length
In the case of B6, the “Average logFC” value is listed as −1.278, the “M1-1 Log2 Median Normalized” value is reported as −0.801, the “M1-2 Log2 Median Normalized” value is recorded as −0.766 and the “M2-1 Log2 Median Normalized” value was −2.0015. The “M2-2 Log2 Median Normalized” value is reported as −1.543 and the change entry is “down”.

B7: Q9CXC3 (protein, UniProt Q9CXC3 1-338, looked up)
chain: MKLPLTFCRLLSRLNRFSVKASPPVSFSTFSYLCSQKKKNSYEAVDQAKYSRLVRSVLSRGPAQTPESLFKEDDVLYGPVSKHKAAEPEPQARVPQHCFPIFNEERTGKPHTDASSSPLKIPLQRNSIPSVTRILQQTMPPEQSFFLERWKERMVLELGEDGFAEYTSNVFLQGKQFHKALESILSPQENLTGGEEHPQCGYIESIQHILTEISGVQALESAVQHEALKYVGLLDCVAEYRGKLCVIDWKTSEKPKPLIRNTYDNPLQVVAYMGAVNHDAHYSFQVQCGLIVVAYKDGSPAHPHFMDEELCSKYWAKWLLRLEEYTEKQKNLSAPEPA
modifications: full-length
Turning to B7, the “Average logFC” value is recorded as −1.487, the “M1-1 Log2 Median Normalized” value is −1.486, the “M1-2 Log2 Median Normalized” value is listed as −0.854 and the “M2-1 Log2 Median Normalized” value is recorded as −1.7905. Besides, the “M2-2 Log2 Median Normalized” value is −1.7 and the change entry is “down”.

B8: Q9CWY4 (protein, UniProt Q9CWY4 1-129, looked up)
chain: MQSPLTIPVPVPVLRLPRGPDGFSRGFASDGRRTILRPEVGEGHIQDPPESQEQRARATLRERYLRSLLAMVGHPVSFTLHEGVHVTAQFGATDLDVANFYVSQLQTPIGVQAEALLRCSDIISYSFKL
modifications: full-length
As to B8, the “Average logFC” value is −1.168, the “M1-1 Log2 Median Normalized” value is recorded as −0.742, the “M1-2 Log2 Median Normalized” value is −0.855 and the “M2-1 Log2 Median Normalized” value was −1.6895. In addition, the “M2-2 Log2 Median Normalized” value is −1.387 and the change result is reported as “down”.

B9: Q9CZT6 (protein, UniProt Q9CZT6 1-276, looked up)
chain: MADDLGDEWWENQPAAASSPEQSGGEEGGDTEMTQQDTAPVPEKTQQPTECFLTQTKEPKAEDSRKTRKWKKKKISDILAKSEPKPGTPEDLQKLIRDHYSSSRSVIELEELHLPDSCFLKANDLTHSLSSYLKEICPKWVKLRKTHNEKKSVLMLILCSSAVRALELIRSLTAFKGDAKVMKLFAKHIKVQEQVKLLEKRVIHLGVGTPGRIKELVKQDGLHLNPLKFLVFDWNWRDQKLRRMMDIPEIRKEVFELLDMGVFSLCKSDSLKLGLF
modifications: full-length
In the case of B9, the “Average logFC” value is recorded as −1.131, the “M1-1 Log2 Median Normalized” value is recorded as −1.275, the “M1-2 Log2 Median Normalized” value was −0.965 and the “M2-1 Log2 Median Normalized” value is recorded as −0.8705. For the same molecule, the “M2-2 Log2 Median Normalized” value is recorded as −1.413 and the change result was “down”.
